Experimental data as given in the supplement of paper PMC10724198.
± gives the standard deviation of the averaged measurements.

system: Saccharomyces cerevisiae; test: protein stability index of tFT-peptide fusion (C-terminal peptide) (PSI (0-1 scale)); higher = more stable (slower turnover); settings: genetic background: das1 deletion; temperature: 30 C
Protocol: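 MPS profiling in S. cerevisiae of the yeast C-terminome library: the last 12 aa of each annotated ORF are fused to the C-terminus of a sfGFP-mCherry timer, after a GGGS linker. Cells are FACS-sorted into 8 mCherry/sfGFP bins and deep-sequenced. PSI runs from 0 (unstable) to 1 (stable); wild type and das1Δ backgrounds, two technical replicates each.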

Sequence	protein stability index
KEFKQFEFHNRR [RRP36 C-terminal 12 aa]	0.729 ± 0.011
KERSHHFVRNMN [YKL102C C-terminal 12 aa]	0.707 ± 0.0071
KERTHLFQLIRK [EFM6 C-terminal 12 aa]	0.699 ± 0.0076
KEVPLDFDPDRN [ANP1 C-terminal 12 aa]	0.683 ± 0.037
KEWKEKEKTGKQ [MPC1 C-terminal 12 aa]	0.728 ± 0.012
KFDKPLYERLET [YNR014W C-terminal 12 aa]	0.6855 ± 0.0028
KFQDVLDNFLQG [ETT1 C-terminal 12 aa]	0.713 ± 0.019
KFSSTSRYMQYN [RPT1 C-terminal 12 aa]	0.705 ± 0.016
KGATIKEIVLND [ATH1 C-terminal 12 aa]	0.69826 ± 0.00054
KGGRLSSKPIIM [SPT3 C-terminal 12 aa]	0.683 ± 0.019
KGVFWDPACVIA [MFA1 C-terminal 12 aa]	0.731 ± 0.0082
KHCPYVFIPYVF [ERG4 C-terminal 12 aa]	0.5262 ± 0.00096
KHGLNDWIVGQK [YPL225W C-terminal 12 aa]	0.712 ± 0.021
KHKNILFFNHNT [YJR162C C-terminal 12 aa]	0.725 ± 0.015
KHKNILSFNDNT [YER188C-A C-terminal 12 aa]	0.731 ± 0.015
KHKQYFWKRPTK [PLM2 C-terminal 12 aa]	0.714 ± 0.015
KHVGKGCGYSYH [STP4 C-terminal 12 aa]	0.696 ± 0.024
KILDEINLDRIK [HEM3 C-terminal 12 aa]	0.689 ± 0.0094
KILTQHLQDLQS [RKM2 C-terminal 12 aa]	0.6934 ± 0.0063
KIQWDIDPQLDG [SSY5 C-terminal 12 aa]	0.743 ± 0.033
KIVSGLVRTNSS [YIL060W C-terminal 12 aa]	0.703 ± 0.019

Sequence	protein stability index
KKARKMPTWVKR [MRPS9 C-terminal 12 aa]	0.693 ± 0.032
KKKLVKKTKSKK [RIO1 C-terminal 12 aa]	0.739 ± 0.01
KKKQNDGKSLRS [DBP8 C-terminal 12 aa]	0.687 ± 0.013
KLAKPAPTSKLD [TDA4 C-terminal 12 aa]	0.6901 ± 0.0021
KLIHIPIRYVIV [SSS1 C-terminal 12 aa]	0.424 ± 0.03
KLQPQVYKPWSL [RSC8 C-terminal 12 aa]	0.6842 ± 0.0019
KNHDFKDCADIF [SWH1 C-terminal 12 aa]	0.721 ± 0.017
KNIPEKFKNGIF [SSP120 C-terminal 12 aa]	0.729 ± 0.036
KNLQNELEKNNA [RTN1 C-terminal 12 aa]	0.6887 ± 0.0022
KNLTRTSVSFIG [TRS85 C-terminal 12 aa]	0.7307 ± 0.0033
KNSNLSPTQIEL [SSK1 C-terminal 12 aa]	0.7083 ± 0.0012
KPFYYKIYRFWC [SAM3 C-terminal 12 aa]	0.735 ± 0.024
KPGGSKKRKTKA [RFC1 C-terminal 12 aa]	0.729 ± 0.011
KPGLTVYSIELL [SMP3 C-terminal 12 aa]	0.6898 ± 0.0048
KPMAYSNGGFGL [PPT1 C-terminal 12 aa]	0.674 ± 0.015
KQAQEGTKNLKI [PAC10 C-terminal 12 aa]	0.714 ± 0.055
KQRFLLCWSTKL [YHR131W-A C-terminal 12 aa]	0.693 ± 0.034
KQYSSPEICFRV [YBR134W C-terminal 12 aa]	0.692 ± 0.029
KRAENNAQKKTN [ERG25 C-terminal 12 aa]	0.689 ± 0.019
KRRPYVRAHAKW [YGR051C C-terminal 12 aa]	0.7089 ± 0.0043
KRRSDSKESRKL [YPR145C-A C-terminal 12 aa]	0.713 ± 0.037

Sequence	protein stability index
KSQISVSFYRDN [YPR027C C-terminal 12 aa]	0.704 ± 0.04
KSVRIAIDKPIR [ALD5 C-terminal 12 aa]	0.696 ± 0.026
KTGKKNKVAKKN [SRP14 C-terminal 12 aa]	0.682 ± 0.0078
KTHRSRSSRKGN [YMR135W-A C-terminal 12 aa]	0.6834 ± 0.0026
KTQDYGKKYNSG [SIZ1 C-terminal 12 aa]	0.69 ± 0.018
KTVSDEEYAYIV [APM2 C-terminal 12 aa]	0.6901 ± 0.0029
KTVSPNWEVKEL [CYM1 C-terminal 12 aa]	0.6828 ± 0.0036
KTYIKNDVEIFN [HBN1 C-terminal 12 aa]	0.715 ± 0.025
KVNGDIYRLPPS [MBA1 C-terminal 12 aa]	0.6888 ± 0.001
KVRTQSKQPQEE [SAW1 C-terminal 12 aa]	0.682 ± 0.021
KVSPADAAKKAL [RPS26A C-terminal 12 aa]	0.704 ± 0.0096
KVTSANEHTSAV [PEX27 C-terminal 12 aa]	0.689 ± 0.011
KWGLSKKDGRQA [SLY41 C-terminal 12 aa]	0.699 ± 0.034
KWLWRELEESSL [OCA5 C-terminal 12 aa]	0.745 ± 0.018
KYKFYDDENLTE [SOL1 C-terminal 12 aa]	0.72 ± 0.017
KYRRQVRYTQRT [YGL052W C-terminal 12 aa]	0.708 ± 0.0075
KYYETVGKADII [AIM36 C-terminal 12 aa]	0.68805 ± 0.00047
LADAGHLWHSIT [YNL120C C-terminal 12 aa]	0.746 ± 0.02
LADLRVYLRVPG [YGL088W C-terminal 12 aa]	0.565 ± 0.021
LAFIAACKKYIY [IKS1 C-terminal 12 aa]	0.696 ± 0.023
LAITIAALCASL [EXG2 C-terminal 12 aa]	0.55 ± 0.0069

Sequence	protein stability index
LAPLQFSGIVRS [YDR274C C-terminal 12 aa]	0.6773 ± 0.0022
LAVEETIGFGQE [RSP5 C-terminal 12 aa]	0.7037 ± 0.0066
LAWNPNLSAKRF [PRP46 C-terminal 12 aa]	0.71 ± 0.031
LDDTPAPTATNL [NUD1 C-terminal 12 aa]	0.6857 ± 0.0035
LDIFCLIFRKRT [YPR076W C-terminal 12 aa]	0.508 ± 0.031
LDSVFSKFCIGK [MSS1 C-terminal 12 aa]	0.7 ± 0.0095
LEEETLPPSQKK [PYC2 C-terminal 12 aa]	0.694 ± 0.013
LEFVRGGSRQFT [TIM44 C-terminal 12 aa]	0.689 ± 0.0081
LEKHTASDTSCI [YAL066W C-terminal 12 aa]	0.727 ± 0.025
LENIKKAKEFFQ [GTR1 C-terminal 12 aa]	0.726 ± 0.012
LERLRYLFPNYW [MEU1 C-terminal 12 aa]	0.738 ± 0.016
LFFQDIERFFSC [YMR194C-A C-terminal 12 aa]	0.7717 ± 0.0042
LHVISKVAGKLF [SBH1 C-terminal 12 aa]	0.703 ± 0.022
LIDLCCSCAGGM [MNC1 C-terminal 12 aa]	0.685 ± 0.012
LIPELYSVLDGF [YDL007C-A C-terminal 12 aa]	0.7449 ± 0.0037
LISEFQKKQAKK [MEF1 C-terminal 12 aa]	0.7194 ± 0.0033
LKDNLAKPKTRR [VBA2 C-terminal 12 aa]	0.715 ± 0.0088
LKILRQKMNHQN [ATG1 C-terminal 12 aa]	0.686 ± 0.013
LKNGDKPHLLKF [RPL6B C-terminal 12 aa]	0.714 ± 0.038
